Laboratory results taken from patent US20220308062A1, “METHODS FOR PREDICTING DRUG RESPONSIVENESS IN SAMPLES FROM CANCER SUBJECTS” (Board of Regents, The University of Texas System, priority 2019, published 2022).

Columns and labels:
Format in all cases: cell-based, human
[1] = test system: patient-derived organoids (PDOs); test: Patient-derived organoid CellTiter-Glo cell viability; conditions: Homo sapiens, 72 h; read-out: reduction in cell viability
Protocol: Patient-derived organoids (PDOs). Tumor tissues were minced on ice into 1 mm^3 small pieces. Tumor pieces (˜20 μl in volume) were resuspended in 200 μl Matrigel and seeded into 24 well plates for 15 min until gel solidify, followed by culture in advanced DMEM/F12 medium supplemented with B27 and N2 (Thermo Fisher Scientific), 0.01% BSA (Roche), 100 units/m penicillin-streptomycin (Thermo Fisher Scientific), and others (Table 4) for 4-8 weeks to grow organoids. […] The CellTiter-Glo Luminescent Cell Viability assay was used to determine drug responsiveness.

[2] = test system: PMA-stimulated U937; test: Immunofluorescence of IL-11 treated U937; conditions: 25 ng/ml, 72 hr
Protocol: Immunofluorescence. PMA-stimulated U937 were cultured and treated with 25 ng/ml IL-11 over 72 hr. Cells were then fixed with 4% paraformaldehyde for 15 minutes. After fixation, cells were incubated with fluorescence conjugated primary antibody (CD14, CD86 and CD163) for 1 hour. Slides were mounted with mounting medium with DAPI and the images were taken with fluorescence microscope.

[3] = test system: PMA-stimulated U937 and THP-1; test: Western blot of IL-11 treated macrophages; conditions: serial dosages, 72 hr
Protocol: Western blot analysis. PMA-stimulated U937 and THP-1 were cultured and treated with serial dosages of IL-11 over 72 hr. Cell lysates were harvested using RIPA buffer. The concentration of protein lysates was determined by Pierce™ BCA Protein Assay Kit (Thermo fisher). Forty micrograms of the total protein extracts were separated by NuPAGE™ 4-12% Bis-Tris Protein Gels (Thermo fisher) and transferred to PVDF membrane. The membranes were then blocked with 5% of Blotting-Grade Blocker (BioRad) in TBST and probed using primary antibodies against pSTAT3, STAT3 and GAPDH (Cell Signaling Technology; 2118S). Membranes were incubated in HRP-linked secondary antibodies following dilution with TBST (1:5000) at room temperature for one hour. Blots were developed using Western Lightning Plus-ECL Chemiluminescent Reagents (Perkin Elmer, Waltham, Mass.) and Syngene G:BOX Imaging System.

With `N#CC[C@H](C1CCCC1)n1cc(-c2ncnc3[nH]ccc23)cn1` [ruxolitinib] as the molecule, how does the cytotoxicity at 15 µM [1] read?
Its cytotoxicity at 15 µM is 10 to 20%.

B1: IL-11: cytokine, a member of the IL-6 cytokine family, used to treat PMA-stimulated U937 and THP-1 macrophages (protein, UniProt P20809 22-199, looked up)
Interleukin-11: PGPPPGPPRVSPDPRAELDSTVLLTRSLLADTRQLAAQLRDKFPADGDHNLDSLPTLAMSAGALGALQLPGVLTRLRADLLSYLRHVQWLRRAGGSSLKTLEPELGTLQARLDRLLRRLQLLMSRLALPQPPPDPPAPPLAPPSSAWGGIRAAHAILGGLHLTLDWAVRGLLLLKTRL
With B1 as the molecule, how does the “CD163 (immunofluorescence)” value [2] read?
Its value is “up-regulated”.

And the “pSTAT3 (western blot)” value [3]?
The value was “up-regulated”.
